Test results from patent US20190233494A1 (Sanofi, published 2019).
Starred links: 1 amine or outer side, 2 acyl side, 3 side chain; linkers in the order of their positions; H or OH if unused. Non-standard residues stand in square brackets, D forms with d. Groups on a side chain read outwards from the residue. *: point of attachment. TTDS = 4-[3-[2-[2-(3-aminopropoxy)ethoxy]ethoxy]propylamino]-4-oxo-butanoyl; γGlu = O=C(O)[C@H](CCC(=O)[*:2])N[*:1]; Stearoyl = CCCCCCCCCCCCCCCCCC(=O)*; Palmitoyl = CCCCCCCCCCCCCCCC(=O)*; Cit = NC(=O)NCCC[C@H](N)C(=O)O; αMeK = C[C@](N)(CCCCN)C(=O)O; hLys = NCCCCC[C@H](N)C(=O)O; AEEA = NCCOCCOCC(=O)O; Aib = CC(C)(N)C(=O)O

T1: RXFP1 receptor (endogenous, on OVCAR5 cells) (UniProt Q9HBX9 1-757, limits assumed)
T1 sequence (looked up): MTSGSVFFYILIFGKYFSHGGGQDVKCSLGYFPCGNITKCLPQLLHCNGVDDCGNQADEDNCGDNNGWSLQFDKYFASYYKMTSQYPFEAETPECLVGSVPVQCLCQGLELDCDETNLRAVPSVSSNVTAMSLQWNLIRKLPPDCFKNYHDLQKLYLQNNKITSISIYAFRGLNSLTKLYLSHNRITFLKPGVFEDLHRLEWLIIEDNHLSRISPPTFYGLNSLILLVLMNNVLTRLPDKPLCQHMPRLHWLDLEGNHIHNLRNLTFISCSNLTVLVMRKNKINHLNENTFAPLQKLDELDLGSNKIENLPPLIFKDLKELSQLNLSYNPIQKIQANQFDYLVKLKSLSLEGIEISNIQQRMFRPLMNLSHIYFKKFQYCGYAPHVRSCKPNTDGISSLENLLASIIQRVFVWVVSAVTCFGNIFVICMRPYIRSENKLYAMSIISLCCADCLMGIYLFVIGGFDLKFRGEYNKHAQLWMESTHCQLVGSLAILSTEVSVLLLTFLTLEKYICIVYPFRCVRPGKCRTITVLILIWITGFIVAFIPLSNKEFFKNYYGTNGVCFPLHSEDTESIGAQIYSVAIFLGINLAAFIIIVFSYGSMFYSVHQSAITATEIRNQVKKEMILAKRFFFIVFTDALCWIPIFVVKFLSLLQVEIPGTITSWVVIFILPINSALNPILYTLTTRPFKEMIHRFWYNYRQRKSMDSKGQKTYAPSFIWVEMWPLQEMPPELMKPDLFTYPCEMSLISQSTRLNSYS


Legend:
[1] = target: T1, RXFP1 receptor (endogenous, on OVCAR5 …); assay: cell-based or functional assay
[2] = target: T1, RXFP1 receptor (endogenous, on OVCAR5 …); assay: cell-based or functional assay; remark: listed apart in the source

EC50 (nM), OVCAR 5 cells (cAMP) [1] [nM] | EC50 (nM), cAMP assay in OVCAR 5 cells [2] [nM] | Emax, cAMP assay in OVCAR 5 cells [2] [%] | EMax, OVCAR 5 cells (cAMP) [1] [%] | Binder
0.18 | – | – | – | Ac-LEGRERVRAK(Ac)I[Aib][Aib]EGK([TTDS-TTDS-TTDS-γGlu-γGlu-γGlu-Palmitoyl])STWS[Aib]RRK(Ac)-NH2 [peptide of SEQ ID NO: 55]
– | 1640 | 90 | – | H-VIKLSGRELVRAQIAISGMSTWSKRSL-NH2 [B7-33 C11.23S]
0.16 | – | – | 96 | Ac-LEGREKVRAK(Ac)I[Aib][Aib]EGK([TTDS-TTDS-γGlu-γGlu-γGlu-γGlu-Stearoyl])STWS[Aib]RKK(Ac)-NH2 [peptide of SEQ ID NO: 54]
2.2 | – | – | 97 | Ac-LEGREKVRAK(Ac)I[Aib][Aib]EGK([TTDS-TTDS-TTDS-γGlu-γGlu-γGlu-Palmitoyl])STW[Dser]KRAK(Ac)-NH2 [peptide of SEQ ID NO: 44]
0.64 | – | – | 95 | Ac-LEGREKVRAKI[Aib][Aib]EGK([TTDS-TTDS-TTDS-γGlu-γGlu-γGlu-Palmitoyl])STFS[αMeK]RAK(Ac)-NH2 [peptide of SEQ ID NO: 47]
0.15 | – | – | 91 | Ac-LEGREKVRA[Cit]I[Aib][Aib]EGK([TTDS-TTDS-TTDS-γGlu-γGlu-γGlu-Stearoyl])STFS[αMeK]RAK(Ac)-NH2 [peptide of SEQ ID NO: 56]
0.1 | – | – | 98 | Ac-LEGREKVRAK(Ac)I[Aib][Aib]EGK([TTDS-TTDS-TTDS-γGlu-γGlu-γGlu-γGlu-Stearoyl])STWS[Aib]RKK(Ac)-NH2 [peptide of SEQ ID NO: 51]
0.45 | – | – | 96 | Ac-LEGREKVRAQI[Aib][Aib]EGK([TTDS-TTDS-TTDS-γGlu-γGlu-γGlu-Palmitoyl])STFS[αMeK]RAK(Ac)-NH2 [peptide of SEQ ID NO: 48]
0.45 | – | – | 96 | Ac-LEGREKVRAK(Ac)I[Aib][Aib]EGK([AEEA-AEEA-AEEA-AEEA-AEEA-γGlu-γGlu-γGlu-Palmitoyl])STFS[αMeK]RAK(Ac)-NH2 (SMILES CCCCCCCCCCCCCCCC(=O)N[C@@H](CCC(=O)N[C@@H](CCC(=O)N[C@@H](CCC(=O)NCCOCCOCC(=O)NCCOCCOCC(=O)NCCOCCOCC(=O)NCCOCCOCC(=O)NCCOCCOCC(=O)NCCCC[C@H](NC(=O)CNC(=O)[C@H](CCC(=O)O)NC(=O)C(C)(C)NC(=O)C(C)(C)NC(=O)[C@@H](NC(=O)[C@H](CCCCNC(C)=O)NC(=O)[C@H](C)NC(=O)[C@H](CCCNC(=N)N)NC(=O)[C@@H](NC(=O)[C@H](CCCCN)NC(=O)[C@H](CCC(=O)O)NC(=O)[C@H](CCCNC(=N)N)NC(=O)CNC(=O)[C@H](CCC(=O)O)NC(=O)[C@H](CC(C)C)NC(C)=O)C(C)C)[C@@H](C)CC)C(=O)N[C@@H](CO)C(=O)N[C@H](C(=O)N[C@@H](Cc1ccccc1)C(=O)N[C@@H](CO)C(=O)N[C@@](C)(CCCCN)C(=O)N[C@@H](CCCNC(=N)N)C(=O)N[C@@H](C)C(=O)N[C@@H](CCCCNC(C)=O)C(N)=O)[C@@H](C)O)C(=O)O)C(=O)O)C(=O)O) [peptide of SEQ ID NO: 45]
0.19 | – | – | 97 | Ac-LEGREKVRAK(Ac)I[Aib][Aib]EGK([TTDS-TTDS-TTDS-γGlu-γGlu-γGlu-Palmitoyl])STFS[αMeK]RAK-NH2 [peptide of SEQ ID NO: 49]
– | 929 | 70 | – | Ac-VIKLSGRELVRAQIAISGMSTWSKRSL-NH2 [AcB7-33 C11.23S]
– | 206 | 84 | – | Ac-VIKLSGRELVRAQIAISGMSTWSKKKK-NH2 [KKKK(AcB7-29 C11.23S)]
0.44 | – | – | 98 | Ac-LEGREKVRAK(Ac)I[Aib][Aib]EGK([TTDS-TTDS-TTDS-γGlu-γGlu-γGlu-Palmitoyl])STWS[hLys]RAK(Ac)-NH2 [peptide of SEQ ID NO: 57]
1.5 | – | – | 84 | Ac-LEGREKVRAK(Ac)I[Aib][Aib]EGK([AEEA-AEEA-AEEA-AEEA-γGlu-γGlu-γGlu-Palmitoyl])STWS[αMeK]RAK(Ac)-NH2 (SMILES CCCCCCCCCCCCCCCC(=O)N[C@@H](CCC(=O)N[C@@H](CCC(=O)N[C@@H](CCC(=O)NCCOCCOCC(=O)NCCOCCOCC(=O)NCCOCCOCC(=O)NCCOCCOCC(=O)NCCCC[C@H](NC(=O)CNC(=O)[C@H](CCC(=O)O)NC(=O)C(C)(C)NC(=O)C(C)(C)NC(=O)[C@@H](NC(=O)[C@H](CCCCNC(C)=O)NC(=O)[C@H](C)NC(=O)[C@H](CCCNC(=N)N)NC(=O)[C@@H](NC(=O)[C@H](CCCCN)NC(=O)[C@H](CCC(=O)O)NC(=O)[C@H](CCCNC(=N)N)NC(=O)CNC(=O)[C@H](CCC(=O)O)NC(=O)[C@H](CC(C)C)NC(C)=O)C(C)C)[C@@H](C)CC)C(=O)N[C@@H](CO)C(=O)N[C@H](C(=O)N[C@@H](Cc1c[nH]c2ccccc12)C(=O)N[C@@H](CO)C(=O)N[C@@](C)(CCCCN)C(=O)N[C@@H](CCCNC(=N)N)C(=O)N[C@@H](C)C(=O)N[C@@H](CCCCNC(C)=O)C(N)=O)[C@@H](C)O)C(=O)O)C(=O)O)C(=O)O) [peptide of SEQ ID NO: 42]
